The results in this text go back to paper PMC10582461, “Self‐Aggregating Tau Fragments Recapitulate Pathologic Phenotypes and Neurotoxicity of Alzheimer's Disease in Mice” (Advanced Science, 2023).

The series deals with the molecule itself. The series is described as follows: in vitro self-aggregation, non-reducing SDS-PAGE and immunoblot; tau-AC species alone (40-100 µM) in self-assembly buffer (10 mM HEPES pH 7.4, 100 mM NaCl, 1 mM DTT), 37 °C, shaking 250 rpm, no inducers; non-reducing SDS-PAGE, IB and CBB.

B1: tau‐AC‐TQDVSK (tau‐AC with the PHF6 motif substituted with hydrophilic residues) (domain or fragment, human, UniProt P10636-8 306-378, looked up)
chain: TQDVSKPVDLSKVTSKCGSLGNIHHKPGGGQVEVKSEKLDFKDRVQSKIGSLDNITHVPGGGNKKIETHKLTF
notes: human tau residues 306-378 of 2N4R (441 residues) with 306VQIVYK311 changed to TQDVSK; numbers count on: 2N4R tau (441 residues); source: E. coli Rosetta 2 (DE3), pET28a, purified
Turning to B1, the binding result was “binds”.
